Measured values taken from PMC8765073 (mAbs, 2022).

What was measured:
[1] = biological target: RBD of SARS-CoV-1 (Tor 2) (SARS-CoV-1, Tor2, UniProt P59594); assay: BLI
[2] = biological target: RBD of pangolin CoV (PCoV-GD1) (Pangolin coronavirus GD/1/2019 …); assay: BLI

B1: D27LEY (antibody, V domains shown)
VH: QVQLQQSGAEVKKPGSSVKVSCKASGGTFGNWSISWVRQAPGQGLEWMGGIAPGRGEATYAQKFQGRVTITTDESTSTAYMELSSLRSEDTAVYYCARETWYTSGGMDVWGQGTTVTVSS
VL: SYELTQPPSVSVAPGKTARITCGGNNIGRKSVHWYQQKPGQAPVLVVYDDSDRPSGIPERFSGSNSGNTATLTISRVEAGDEADYYCQVYDLWSSDYVFGTGTKVEIK
- Kd [1]: < 0.001 nM
- Kd [2]: 0.66 nM
